# Measurements reported in paper PMC6377645, “Structural insights into chaperone addiction of toxin-antitoxin systems” (Nature Communications, 2019).
# Target: Mtb-HigA1^ΔC42 (Mtb-HigA1 deleted of the last 42 residues) (Mycobacterium tuberculosis)
# Test: SEC-MALS; Superdex 200 Increase 5/150; 20 mM MES, 200 mM NaCl, pH 6.5; 15 °C; Mtb-SecB^TA 49.1 µM, Mtb-SecB^TA/HigA1 6.5 µM, Mtb-HigA1^ΔC42 100 µM
substance,measurement,value
Mtb-HigA1^ΔC42 (Mtb-HigA1 deleted of the last 42 residues) (domain or fragment),stoichiometry N,2
